Laboratory results taken from US20080154022A1.

Molecular target: bFGF receptor on BHK-21 (baby hamster kidney derived) cells (hamster)
Experiment: displacement of [^125I]-bFGF from BHK-21 cells, radioreceptor assay, IC50 read from the graph

Substance	IC50
Biotinylated bFGF (monobiotinylated recombinant human bFGF) (from UniProt P09038 143-288) (ligand)	0.4 nM
Complex of bio-bFGF and the OX26/streptavidin conjugate (from UniProt P09038 143-288; P22629 37-163)	0.56 nM
Recombinant human basic fibroblast growth factor (bFGF) (from UniProt P09038 143-288) (ligand)	0.12 nM
